Paper PMC5603589 (2017)

Target: GST-AKT1 CA (85 kDa) (UniProt P31749 1-480)
Assay: BLI

Sequence of GST-AKT1 CA (85 kDa) (P31749 whole entry): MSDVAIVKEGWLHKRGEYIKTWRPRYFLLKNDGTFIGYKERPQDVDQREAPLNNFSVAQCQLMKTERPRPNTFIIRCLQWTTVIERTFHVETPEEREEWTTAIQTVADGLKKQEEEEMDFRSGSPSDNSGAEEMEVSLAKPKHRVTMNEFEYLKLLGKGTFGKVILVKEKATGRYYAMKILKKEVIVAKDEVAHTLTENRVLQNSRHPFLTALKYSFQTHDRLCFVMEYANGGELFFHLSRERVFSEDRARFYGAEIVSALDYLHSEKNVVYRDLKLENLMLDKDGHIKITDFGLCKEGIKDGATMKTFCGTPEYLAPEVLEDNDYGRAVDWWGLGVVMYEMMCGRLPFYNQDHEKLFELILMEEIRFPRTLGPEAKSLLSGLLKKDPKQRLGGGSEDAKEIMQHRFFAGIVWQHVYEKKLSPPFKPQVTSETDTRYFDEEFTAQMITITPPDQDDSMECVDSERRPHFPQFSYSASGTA

B1: GST-PALLD third IgC domain (40 kDa) (domain or fragment)
chain: PFFEMKLKHYKIFEGMPVTFTCRVAGNPKPKIYWFKDGKQISPKSDHYTIQRDLDGTCSLHTTASTLDDDGNYTIMAANPQGRIS
modifications: labelled by biotin
In the case of B1, the Kd is reported as 0.0772 nM.
